Test results reported in patent US20230357429A1 (JANUX THERAPEUTICS, published 2023).
Where two headings read alike, the source gives them in different places. Where no end group is shown, it is not given here.

T1: Peptide-66 (cysteine pairing not given here; also: biotinylated, site not given here)
T1 construct: mask peptide for the CD3 scFv
T1 peptide: GSQCLGPEWEVCPY

T2: Peptide-71 (cysteine pairing not given here; also: biotinylated, site not given here)
T2 construct: mask peptide for the CD3 scFv
T2 peptide: VDCGPDGDESILCY

T3: Peptide-72 (cysteine pairing not given here; also: biotinylated, site not given here)
T3 construct: mask peptide for the CD3 scFv
T3 peptide: AYCGPEFDESVGCM

T4: Peptide-67 (cysteine pairing not given here; also: biotinylated, site not given here)
T4 construct: mask peptide for the CD3 scFv
T4 peptide: VYCGPEFDESVGCM

T5: Peptide-69 (cysteine pairing not given here; also: biotinylated, site not given here)
T5 construct: mask peptide for the CD3 scFv
T5 peptide: SECLVDLQSDPCYW

T6: Peptide-75 (cysteine pairing not given here; also: biotinylated, site not given here)
T6 construct: mask peptide for the CD3 scFv
T6 peptide: GSACLGPEWEVCPY

T7: Peptide-74 (cysteine pairing not given here; also: biotinylated, site not given here)
T7 construct: mask peptide for the CD3 scFv
T7 peptide: ASQCLGPEWEVCPY

T8: Peptide-73 (cysteine pairing not given here; also: biotinylated, site not given here)
T8 construct: mask peptide for the CD3 scFv
T8 peptide: VYCGPEFDESVGCA

T9: Peptide-68 (cysteine pairing not given here; also: biotinylated, site not given here)
T9 construct: mask peptide for the CD3 scFv
T9 peptide: DWCWYSPDNDGLCD

T10: Peptide-76 (cysteine pairing not given here; also: biotinylated, site not given here)
T10 construct: mask peptide for the CD3 scFv
T10 peptide: YLCGPDADETLACY

T11: Peptide-77 (cysteine pairing not given here; also: biotinylated, site not given here)
T11 construct: mask peptide for the CD3 scFv
T11 peptide: YLCGPDTDETLACY

T12: Peptide-70 (cysteine pairing not given here; also: biotinylated, site not given here)
T12 construct: mask peptide for the CD3 scFv
T12 peptide: YLCGPDGDETLACY


Legend:
[1] = molecular target: T1, Peptide-66; experiment: ELISA, TCE on captured biotin-peptide
Experimental: (§1) Binding was measured in a standard ELISA format. […] The TROP2 TCE constructs diluted in buffer were then added to the peptide coated plates. Bound TCEs were detected using a standard horse radish peroxidase conjugate secondary antibody. The ELISA signal was plotted versus the log-scale concentration of TCE. The concentrations of TCE required to observe half maximal binding signal (EC₅₀s) were calculated using Graphpad Prism software.

[2] = molecular target: T2, Peptide-71; experiment: ELISA, TCE on captured biotin-peptide
Experimental: as §1

[3] = molecular target: T3, Peptide-72; experiment: ELISA, TCE on captured biotin-peptide
Experimental: as §1

[4] = molecular target: T4, Peptide-67; experiment: ELISA, TCE on captured biotin-peptide
Experimental: as §1

[5] = molecular target: T5, Peptide-69; experiment: ELISA, TCE on captured biotin-peptide
Experimental: as §1

[6] = molecular target: T6, Peptide-75; experiment: ELISA, TCE on captured biotin-peptide
Experimental: as §1

[7] = molecular target: T7, Peptide-74; experiment: ELISA, TCE on captured biotin-peptide
Experimental: as §1

[8] = molecular target: T8, Peptide-73; experiment: ELISA, TCE on captured biotin-peptide
Experimental: as §1

[9] = molecular target: T9, Peptide-68; experiment: ELISA, TCE on captured biotin-peptide
Experimental: as §1

[10] = molecular target: T13, CD3 (biotinylated CD3 antigen) (human, UniProt P07766 23-126, limits assumed, biotinylated (site not stated)); experiment: ELISA, TCE on captured biotin-CD3
T13 construct: also called CD3ε; human CD3

[11] = molecular target: T10, Peptide-76; experiment: ELISA, TCE on captured biotin-peptide
Experimental: as §1
(§2) Peptide mask sequences were also evaluated for their binding affinities against TROP2 TCE sequences harboring alanine mutations in the CDR3 regions of either or both of the TROP2 and CD3 binding domains.

[12] = molecular target: T11, Peptide-77; experiment: ELISA, TCE on captured biotin-peptide
Experimental: as §1, §2

[13] = molecular target: T12, Peptide-70; experiment: ELISA, TCE on captured biotin-peptide
Experimental: as §1, §2

[14] = molecular target: T8, Peptide-73; experiment: ELISA, TCE on captured biotin-peptide
Experimental: as §1, §2

T13 sequence (P07766 23-126 limits assumed): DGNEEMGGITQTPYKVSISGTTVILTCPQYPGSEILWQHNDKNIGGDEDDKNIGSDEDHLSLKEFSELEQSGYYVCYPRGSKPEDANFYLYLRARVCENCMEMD

Row | EC50 [1] [nM] | EC50 [2] [nM] | EC50 [3] [nM] | EC50 [4] [nM] | EC50 [5] [nM] | EC50 [6] [nM] | EC50 [7] [nM] | EC50 [8] [nM] | EC50 [9] [nM] | EC50 [10] [nM] | EC50 [11] [nM] | EC50 [12] [nM] | EC50 [13] [nM] | EC50 [14] [nM] | Binder
1 | 3.65 | 1.92 | 0.76 | 0.66 | 0.95 | 3.82 | 3.46 | 0.83 | 0.16 | – | – | – | – | – | TCE-20 (anti-CD3 scFv S110A; anti-TROP2 wt) (bispecific antibody, scFv on the Fab heavy chain; also called TCE-20 (S110A)) light: DIQLTQSPSSLSASVGDRVSITCKASQDVSIAVAWYQQKPGKAPKLLIYSASYRYTGVPDRFSGSGSGTDFTLTISSLQPEDFAVYYCQQHYITPLTFGAGTKVEIKRTVAAPSVFIFPPSDEQLKSGTASVVCLLNNFYPREAKVQWKVDNALQSGNSQESVTEQDSKDSTYSLSSTLTLSKADYEKHKVYACEVTHQGLSSPVTKSFNRGEC heavy: not shown
2 | – | – | – | – | – | – | – | – | – | 0.95 | 222 | 336 | 0.62 | 8.87 | TCE-38 (anti-CD3 scFv F240A; anti-TROP2 F108A) (bispecific antibody, scFv on the Fab heavy chain) light: DIQLTQSPSSLSASVGDRVSITCKASQDVSIAVAWYQQKPGKAPKLLIYSASYRYTGVPDRFSGSGSGTDFTLTISSLQPEDFAVYYCQQHYITPLTFGAGTKVEIKRTVAAPSVFIFPPSDEQLKSGTASVVCLLNNFYPREAKVQWKVDNALQSGNSQESVTEQDSKDSTYSLSSTLTLSKADYEKHKVYACEVTHQGLSSPVTKSFNRGEC heavy: not shown
